Results on five proteins are retold here after patent publication US20120014911.

This data set addresses T1, GST-IFNAR1 (wild type): bacterially expressed cytoplasmic domain of IFNAR1 fused with GST, P17181.
T1 chain: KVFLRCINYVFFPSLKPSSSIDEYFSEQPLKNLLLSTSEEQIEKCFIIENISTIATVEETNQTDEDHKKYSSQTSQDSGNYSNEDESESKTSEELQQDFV

B1: GST-tagged PKD1 (human) expressed in 293T cells (protein)
chain: MSAPPVLRPPSPLLPVAAAAAAAAAALVPGSGPGPAPFLAPVAAPVGGISFHLQIGLSREPVLLLQDSSGDYSLAHVREMACSIVDQKFPECGFYGMYDKILLFRHDPTSENILQLVKAASDIQEGDLIEVVLSASATFEDFQIRPHALFVHSYRAPAFCDHCGEMLWGLVRQGLKCEGCGLNYHKRCAFKIPNNCSGVRRRRLSNVSLTGVSTIRTSSAELSTSAPDEPLLQKSPSESFIGREKRSNSQSYIGRPIHLDKILMSKVKVPHTFVIHSYTRPTVCQYCKKLLKGLFRQGLQCKDCRFNCHKRCAPKVPNNCLGEVTINGDLLSPGAESDVVMEEGSDDNDSERNSGLMDDMEEAMVQDAEMAMAECQNDSGEMQDPDPDHEDANRTISPSTSNNIPLMRVVQSVKHTKRKSSTVMKEGWMVHYTSKDTLRKRHYWRLDSKCITLFQNDTGSRYYKEIPLSEILSLEPVKTSALIPNGANPHCFEITTANVVYYVGENVVNPSSPSPNNSVLTSGVGADVARMWEIAIQHALMPVIPKGSSVGTGTNLHRDISVSISVSNCQIQENVDISTVYQIFPDEVLGSGQFGIVYGGKHRKTGRDVAIKIIDKLRFPTKQESQLRNEVAILQNLHHPGVVNLECMFETPERVFVVMEKLHGDMLEMILSSEKGRLPEHITKFLITQILVALRHLHFKNIVHCDLKPENVLLASADPFPQVKLCDFGFARIIGEKSFRRSVVGTPAYLAPEVLRNKGYNRSLDMWSVGVIIYVSLSGTFPFNEDEDIHDQIQNAAFMYPPNPWKEISHEAIDLINNLLQVKMRKRYSVDKTLSHPWLQDYQTWLDLRELECKIGERYITHESDDLRWEKYAGEQGLQYPTHLINPSASHSDTPETEETEMKALGERVSIL
Consider B1, for which the “in vitro phosphorylation of GST-IFNAR1 on Ser535 (immunoblot with anti-pS535)” value (“in vitro phosphorylation of GST-IFNAR1” for short) was “this outcome was not seen when either PKD1 or PKD3 were used as a source of kinase”.

B2: Myc-tagged human CK1α immunopurified from 293T cells (protein)
chain: MASSSGSKAEFIVGGKYKLVRKIGSGSFGDIYLAINITNGEEVAVKLESQKARHPQLLYESKLYKILQGGVGIPHIRWYGQEKDYNVLVMDLLGPSLEDLFNFCSRRFTMKTVLMLADQMISRIEYVHTKNFIHRDIKPDNFLMGIGRHCNKLFLIDFGLAKKYRDNRTRQHIPYREDKNLTGTARYASINAHLGIEQSRRDDMESLGYVLMYFNRTSLPWQGLKAATKKQKYEKISEKKMSTPVEVLCKGFPAEFAMYLNYCRGLRFEEAPDYMYLRQLFRILFRTLNHQYDYTFDWTMLKQKAAQQAASSSGQGQQAQTPTGKQTDKTKSNMKGF
Regarding B2, the “immunokinase assay: phosphorylation of GST-IFNAR1 on Ser535” value was “both immunopurified (FIG. 55C) and bacterially produced CK1α (FIG. 55E, lane 6) also phosphorylated GST4FNAR1 on Ser535 in vitro”.

B3: Myc-tagged human CK1ε immunopurified from 293T cells (protein)
chain: MELRVGNKYRLGRKIGSGSFGDIYLGANIASGEEVAIKLECVKTKHPQLHIESKFYKMMQGGVGIPSIKWCGAEGDYNVMVMELLGPSLEDLFNFCSRKFSLKTVLLLADQMISRIEYIHSKNFIHRDVKPDNFLMGLGKKGNLVYIIDFGLAKKYRDARTHQHIPYRENKNLTGTARYASINTHLGIEQSRRDDLESLGYVLMYFNLGSLPWQGLKAATKRQKYERISEKKMSTPIEVLCKGYPSEFSTYLNFCRSLRFDDKPDYSYLRQLFRNLFHRQGFSYDYVFDWNMLKFGAARNPEDVDRERREHEREERMGQLRGSATRALPPGPPTGATANRLRSAAEPVASTPASRIQPAGNTSPRAISRVDRERKVSMRLHRGAPANVSSSDLTGRQEVSRIPASQTSVPFDHLGK
In the case of B3, the “immunokinase assay: phosphorylation of GST-IFNAR1 on Ser535” value is “immunopurified human CK18, CK1E, and protozoan parasite L-CK1 were active against IFNAR1S535 in the immunokinase assay in vitro”.

B4: GST-tagged PKD2 (human, wild type) expressed in 293T cells and purified with glutathione beads (protein)
chain: MATAPSYPAGLPGSPGPGSPPPPGGLELQSPPPLLPQIPAPGSGVSFHIQIGLTREFVLLPAASELAHVKQLACSIVDQKFPECGFYGLYDKILLFKHDPTSANLLQLVRSSGDIQEGDLVEVVLSASATFEDFQIRPHALTVHSYRAPAFCDHCGEMLFGLVRQGLKCDGCGLNYHKRCAFSIPNNCSGARKRRLSSTSLASGHSVRLGTSESLPCTAEELSRSTTELLPRRPPSSSSSSSASSYTGRPIELDKMLLSKVKVPHTFLIHSYTRPTVCQACKKLLKGLFRQGLQCKDCKFNCHKRCATRVPNDCLGEALINGDVPMEEATDFSEADKSALMDESEDSGVIPGSHSENALHASEEEEGEGGKAQSSLGYIPLMRVVQSVRHTTRKSSTTLREGWVVHYSNKDTLRKRHYWRLDCKCITLFQNNTTNRYYKEIPLSEILTVESAQNFSLVPPGTNPHCFEIVTANATYFVGEMPGGTPGGPSGQGAEAARGWETAIRQALMPVILQDAPSAPGHAPHRQASLSISVSNSQIQENVDIATVYQIFPDEVLGSGQFGVVYGGKHRKTGRDVAVKVIDKLRFPTKQESQLRNEVAILQSLRHPGIVNLECMFETPEKVFVVMEKLHGDMLEMILSSEKGRLPERLTKFLITQILVALRHLHFKNIVHCDLKPENVLLASADPFPQVKLCDFGFARIIGEKSFRRSVVGTPAYLAPEVLLNQGYNRSLDMWSVGVIMYVSLSGTFPFNEDEDINDQIQNAAFMYPASPWSHISAGAIDLINNLLQVKMRKRYSVDKSLSHPWLQEYQTWLDLRELEGKMGERYITHESDDARWEQFAAEHPLPGSGLPTDRDLGGACPPQDHDMQGLAERISVL
Regarding B4, the “in vitro phosphorylation of GST-IFNAR1” value was “GST-tagged PKD2 expressed in 293T cells and purified by pull down with glutathione beads was capable of directly phosphorylating bacterially produced GST-IFNAR1 on Ser535 in vitro”.

B5: GST-tagged PKD3 (human) expressed in 293T cells (protein)
chain: MSANNSPPSAQKSVLPTAIPAVLPAASPCSSPKTGLSARLSNGSFSAPSLTNSRGSVHTVSFLLQIGLTRESVTIEAQELSLSAVKDLVCSIVYQKFPECGFFGMYDKILLFRHDMNSENILQLITSADEIHEGDLVEVVLSALATVEDFQIRPHTLYVHSYKAPTFCDYCGEMLWGLVRQGLKCEGCGLNYHKRCAFKIPNNCSGVRKRRLSNVSLPGPGLSVPRPLQPEYVALPSEESHVHQEPSKRIPSWSGRPIWMEKMVMCRVKVPHTFAVHSYTRPTICQYCKRLLKGLFRQGMQCKDCKFNCHKRCASKVPRDCLGEVTFNGEPSSLGTDTDIPMDIDNNDINSDSSRGLDDTEEPSPPEDKMFFLDPSDLDVERDEEAVKTISPSTSNNIPLMRVVQSIKHTKRKSSTMVKEGWMVHYTSRDNLRKRHYWRLDSKCLTLFQNESGSKYYKEIPLSEILRISSPRDFTNISQGSNPHCFEIITDTMVYFVGENNGDSSHNPVLAATGVGLDVAQSWEKAIRQALMPVTPQASVCTSPGQGKDHKDLSTSISVSNCQIQENVDISTVYQIFADEVLGSGQFGIVYGGKHRKTGRDVAIKVIDKMRFPTKQESQLRNEVAILQNLHHPGIVNLECMFETPERVFVVMEKLHGDMLEMILSSEKSRLPERITKFMVTQILVALRNLHFKNIVHCDLKPENVLLASAEPFPQVKLCDFGFARIIGEKSFRRSVVGTPAYLAPEVLRSKGYNRSLDMWSVGVIIYVSLSGTFPFNEDEDINDQIQNAAFMYPPNPWREISGEAIDLINNLLQVKMRKRYSVDKSLSHPWLQDYQTWLDLREFETRIGERYITHESDDARWEIHAYTHNLVYPKHFIMAPNPDDMEEDP
In the case of B5, the “in vitro phosphorylation of GST-IFNAR1” value is recorded as “this outcome was not seen when either PKD1 or PKD3 were used as a source of kinase”.
